Assay results published in patent US20200002421A1 (AbbVie / Abbott, published 2020).

T1: Human full length B7-H3 (human, UniProt Q5ZPR3 29-534)
T1 construct: on 3T12 transfectants, NCI-H1650 and other cells; also called huB7-H3; hu B7-H3
T1 sequence: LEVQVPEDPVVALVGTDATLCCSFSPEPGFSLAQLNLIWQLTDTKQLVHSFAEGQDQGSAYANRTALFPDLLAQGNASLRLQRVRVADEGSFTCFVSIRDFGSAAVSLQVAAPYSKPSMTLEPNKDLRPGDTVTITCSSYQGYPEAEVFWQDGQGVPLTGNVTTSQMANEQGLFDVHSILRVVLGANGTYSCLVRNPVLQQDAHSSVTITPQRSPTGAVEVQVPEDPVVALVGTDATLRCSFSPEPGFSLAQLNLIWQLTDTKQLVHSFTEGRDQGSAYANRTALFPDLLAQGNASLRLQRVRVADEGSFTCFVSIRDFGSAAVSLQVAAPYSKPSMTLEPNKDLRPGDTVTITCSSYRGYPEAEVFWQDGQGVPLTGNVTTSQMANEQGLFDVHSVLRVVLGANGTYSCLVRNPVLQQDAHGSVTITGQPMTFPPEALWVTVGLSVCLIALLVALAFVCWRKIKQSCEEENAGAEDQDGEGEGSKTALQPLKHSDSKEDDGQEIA

T2: hB7-H3 (ELISA antigen of Tables 17 and 20) (human, UniProt Q5ZPR3 29-466, limits assumed)
T2 sequence: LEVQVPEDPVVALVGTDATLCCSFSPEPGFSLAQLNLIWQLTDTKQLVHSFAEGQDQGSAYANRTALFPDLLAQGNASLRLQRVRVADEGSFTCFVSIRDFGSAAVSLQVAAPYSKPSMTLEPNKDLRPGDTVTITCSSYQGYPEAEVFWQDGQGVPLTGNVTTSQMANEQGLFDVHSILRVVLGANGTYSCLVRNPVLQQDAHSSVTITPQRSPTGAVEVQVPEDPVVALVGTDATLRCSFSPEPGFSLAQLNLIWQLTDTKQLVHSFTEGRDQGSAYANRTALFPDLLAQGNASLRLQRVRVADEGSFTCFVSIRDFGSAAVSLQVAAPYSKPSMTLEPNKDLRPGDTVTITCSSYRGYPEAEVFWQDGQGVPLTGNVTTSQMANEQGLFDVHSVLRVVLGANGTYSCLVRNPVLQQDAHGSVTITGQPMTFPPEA


Key:
[1] = biological target: T1, Human full length B7-H3; assay: FACS
Method: (§1) Cells were harvested from flasks when approximately 80% confluent using Gibco® Cell Dissociation Buffer. Cells were washed once in PBS/1% FBS (FACS buffer) then resuspended at 2.5×10⁶ cells/mL in FACS buffer. 100 μL of cells/well were added to a round bottom 96-well plate. 10 μL of a 10× concentration of mAb/ADC (final concentrations are indicated the figures). Wells were washed twice with FACS buffer and resuspended in 50 μL of secondary Ab (AlexaFluor 488) diluted in FACS buffer. The plate was incubated at 4° C. for one hour and washed twice with FACS buffer. Cells were resuspended in 100 μL of PBS/1% formaldehyde and analyzed on a Becton Dickinson LSRII flow cytometer. Data was analyzed using WinList flow cytometry analysis software.
(§2) Nine huAb13 variants described in Examples 17 and 18 were generated and tested for binding to B7-H3 by FACS (according to methods described in Example 6).

[2] = biological target: T3, Cynomolgous B7-H3 on cells (cynomolgus); assay: FACS
T3 construct: whole, on cells; also called cyno B7-H3; cyB7-H3
Method: as §1, §2

[3] = biological target: T2, hB7-H3 (ELISA antigen of Tables 17 and …); assay: ELISA; ELISA, human B7-H3; no DAR given, so unconjugated
[4] = biological target: T2, hB7-H3 (ELISA antigen of Tables 17 and …); assay: ELISA
[5] = biological target: T2, hB7-H3 (ELISA antigen of Tables 17 and …); assay: ELISA; remark: listed apart in the source
[6] = biological target: T1, Human full length B7-H3; assay: FACS, 3T12 transfectants
[7] = biological target: T3, Cynomolgous B7-H3 on cells; assay: FACS, 3T12 transfectants

Binder	EC50 [1]	EC50 [2]	EC50 [3]	EC50 [4]	EC50 [5]	EC50 [6]	EC50 [7]
chAb13 (antibody, IgG1, V domains shown, chimeric, huIgG1/k) VH: DVQLQESGPDLVKPSQSLSLTCTVTGYSITSGYSWHWIRQFPGNKLEWMGYIHSSGSTNYNPSLKSRISINRDTSKNQFFLQLNSVTTEDTATYYCAGYDDYFEYWGQGTTLTVSS VL: DIVMTQSQKFMSTSVGDRVSVTCKASQNVGFNVAWYQQKPGQSPKALIYSASYRYSGVPDRFTGSGSGTDFTLTISNVQSEDLAEYFCQQYNSYPFTFGSGTKLEIK	6.27 nM	18.4 nM	0.26 nM	–	–	–	–
huAb13v1 (antibody, human IgG1, kappa, L234A L235A, V domains shown, Ig gamma-1 mutant / kappa) VH: EVQLQESGPGLVKPSETLSLTCAVTGYSITSGYSWHWIRQFPGNGLEWMGYIHSSGSTNYNPSLKSRISISRDTSKNQFFLKLSSVTAADTAVYYCAGYDDYFEYWGQGTTVTVSS VL: DIQMTQSPSSLSASVGDRVTITCKASQNVGFNVAWYQQKPGKSPKALIYSASYRYSGVPSRFSGSGSGTDFTLTISSLQPEDFAEYFCQQYNWYPFTFGQGTKLEIKR	–	10 nM	–	–	–	–	–
huAb13v5 (antibody, V domains shown) VH: EVQLQESGPGLVKPSETLSLTCAVTGYSITSGYSWHWIRQFPGNGLEWMGYIHSSGSTNYNPSLKSRISISRDTSKNQFFLKLSSVTAADTAVYYCAGYDDYFEYWGQGTTVTVSS VL: DIQMTQSPSSLSASVGDRVTITCKASQNVGFNVAWYQQKPGKAPKLLIYSASYRYSGVPSRFSGSGSGTDFTLTISSLQPEDFATYYCQQYNWYPFTFGQGTKLEIK	5.21 nM	10.6 nM	–	0.19 nM	–	–	–
huAb13v6 (antibody, V domains shown) VH: EVQLQESGPGLVKPSETLSLTCAVTGYSITSGYSWHWIRQFPGNGLEWMGYIHSSGSTNYNPSLKSRISISRDTSKNQFFLKLSSVTAADTAVYYCAGYDDYFEYWGQGTTVTVSS VL: DIQMTQSPSSLSASVGDRVTITCKASQNVGFNVAWYQQKPGKAPKLLIYSASYRYSGVPSRFSGSGSGTDFTLTISSLQPEDFATYFCQQYNWYPFTFGQGTKLEIK	5.83 nM	12.9 nM	–	0.14 nM	–	–	–
huAb3v2.9 (antibody, V domains shown) VH: EVQLVQSGAEVKKPGSSVKVSCKASGYTFSSYWMHWVRQAPGQGLEWIGLIHPISGSTNYNEMFKNRATLTVDRSTSTAYMELSSLRSEDTAVYYCAGGGRLYFDYWGQGTTVTVSS VL: DIVMTQSPLSLPVTPGEPASISCRSSQSLVHSNQDTYLRWYLQKPGQSPQLLIYKVSNRFSGVPDRFSGSGSGTDFTLKISRVEAEDVGVYYCSQSTHVPYTFGGGTKVEIK	–	–	–	–	0.16 nM	6.16 nM	4.64 nM
huAb3v2.8 (antibody, V domains shown) VH: EVQLVQSGAEVKKPGSSVKVSCKASGYTFSSYWMHWVRQAPGQGLEWIGLIHPISGSTNYNEMFKNRATLTVDRSTSTAYMELSSLRSEDTAVYYCAGGGRLYFDYWGQGTTVTVSS VL: DIVMTQSPLSLPVTPGEPASISCRSSQSLVHSNRDTYLRWYLQKPGQSPQLLIYKVSNRFSGVPDRFSGSGSGTDFTLKISRVEAEDVGVYYCSQSTHVPYTFGGGTKVEIK	–	–	–	–	0.14 nM	3.94 nM	3.01 nM
huAb3v2.6 (antibody, human IgG1, kappa, L234A L235A, V domains shown, Ig gamma-1 mutant / kappa) VH: EVQLVQSGAEVKKPGSSVKVSCKASGYTFSSYWMHWVRQAPGQGLEWIGLIHPESGSTNYNEMFKNRATLTVDRSTSTAYMELSSLRSEDTAVYYCAGGGRLYFDYWGQGTTVTVSS VL: DIVMTQSPLSLPVTPGEPASISCRSSQSLVHSNQDTYLRWYLQKPGQSPQLLIYKVSNRFSGVPDRFSGSGSGTDFTLKISRVEAEDVGVYYCSQSTHVPYTFGGGTKVEIKR	–	–	–	–	0.09 nM	5.64 nM	3.31 nM
